Substitutions are numbered along the chain they refer to.
T1: HuCDCP1-C (Homo sapiens, UniProt Q9H5V8)
T1 construct: made in house; host or cells: HEK-293T
T1 sequence (Q9H5V8 30-667): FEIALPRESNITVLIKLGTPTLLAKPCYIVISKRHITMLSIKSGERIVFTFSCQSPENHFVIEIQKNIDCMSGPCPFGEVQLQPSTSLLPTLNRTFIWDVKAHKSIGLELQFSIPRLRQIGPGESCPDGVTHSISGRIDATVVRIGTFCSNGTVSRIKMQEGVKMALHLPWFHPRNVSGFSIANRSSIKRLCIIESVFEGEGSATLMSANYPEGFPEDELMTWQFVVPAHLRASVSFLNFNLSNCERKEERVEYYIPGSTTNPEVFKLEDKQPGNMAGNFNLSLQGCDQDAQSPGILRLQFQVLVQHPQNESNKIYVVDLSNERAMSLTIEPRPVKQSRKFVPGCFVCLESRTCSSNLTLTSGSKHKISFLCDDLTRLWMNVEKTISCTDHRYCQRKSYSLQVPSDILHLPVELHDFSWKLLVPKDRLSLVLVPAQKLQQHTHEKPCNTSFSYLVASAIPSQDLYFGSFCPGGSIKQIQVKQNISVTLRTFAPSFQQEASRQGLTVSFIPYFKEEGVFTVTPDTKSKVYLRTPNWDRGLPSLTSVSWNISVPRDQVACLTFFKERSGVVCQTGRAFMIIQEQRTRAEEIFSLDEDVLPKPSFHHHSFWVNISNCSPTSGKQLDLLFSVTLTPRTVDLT

B1: 12E6: anti-CDCP1 murine monoclonal antibody (hybridoma); VH SEQ ID NO: 255, VL SEQ ID NO: 305 (antibody, V domains shown)
VH: EVQLKESGPGILQPSQTLSLTCSFSGFSLSTSGMGVGWIRQPSGKGLEWLAHIWWDDVKLYNPALKSRLTISKETSNNQVFLKIASVDAADTATYYCARIDHGYGSNYWDFDVWGAGTTVTVSS
VL: DIVMTQAAPSVPVTPGGSVSISCRSTKSLLHSDGKTYLYWFLQRPGQSPQLLIYRMSNLASGVPDRFSGSGSGTAFTLRISRVEAEDVGVYYCMQHLEYPFTFGSGTKLEIK
modifications: 12E6 heavy chain variable region; 12E6 light chain variable region
B2: 1CP-117: humanized anti-CDCP1 antibody produced by 8E5; VH SEQ ID NO: 348, VL SEQ ID NO: 358 (antibody, V domains shown)
VH: QVQLVQSGSELKKPGASVKVSCKASGYTLTDFSMHWVRQAPGQGLEWMGWINTETGAPTYADDFKGRFVLSLDTSVSTAYLQISSLKAEDTAVYYCSRGRDYDPHFDYWGQGTLVTVSS
VL: EIVLTQSPATLSLSPGERATLSCRASQSISDFLHWYQQKPGQSPRLLIKYASQSISGIPARFSGSGSGSDFTLTISSVEPEDFAVYYCQSAHSFPYTFGQGTKLEIK
modifications: humanized antibody 8E5 heavy chain variable region 01; humanized antibody 8E5 light chain variable region 02
B3: 1CP-064: anti-CDCP1 murine monoclonal antibody (hybridoma); VH SEQ ID NO: 267, VL SEQ ID NO: 317 (antibody, V domains shown)
VH: EVKLVESGPGILQPSQTLSLTCSFSGFSLSTSGMGVGWIRQPSGKGLEWLAHIWWDDVKRYNPALKSRLTISKDTSSSQVFLKIASVDTADTATYYCARMGGKVPWFAYWGQGTTVTVSS
VL: DVVMTQTPASLAVSLGQRATISCRASESVDSYGNSFMHWYQQKPGQPPKLLIYLASNLESGVPARFSGSGSRTDFTLTIDPVEADDAATYYCQQNNEDPWTFGGGTKLEIK
modifications: 1CP-064 heavy chain variable region; 1CP-064 light chain variable region
B4: 1CP-065: anti-CDCP1 murine monoclonal antibody (hybridoma); VH SEQ ID NO: 269, VL SEQ ID NO: 319 (antibody, V domains shown)
VH: EVTLKESGAELVRPGALVKLSCKASGFNIKDYYMHWVKQRPEQGLEWIGWIDPENDNTIYDPKFQGKASITADTSSNTAYLQLSSLTSEDTAVYYCARFYGSYYYAMDYWGQGTTVTVSS
VL: DIVMTQSPKFMSTSVGDRVSITCKASQDVSTAVTWYQQKPGQSPKLLIYWASTRHTGVPDRFTGSGSGTDYTLTISSVQAEDLALYYCQQHYSTPYTFGGGTKLEIK
modifications: 1CP-065 heavy chain variable region; 1CP-065 light chain variable region
B5: 1CP-066: anti-CDCP1 murine monoclonal antibody (hybridoma); VH SEQ ID NO: 268, VL SEQ ID NO: 318 (antibody, V domains shown)
VH: EVTLKESGPELKKPGETVKISCKASGYAFTKYGMNWVKQAPGKDLKFMGWINTYTGEATYADDFKGRFDFSLEASASTAFLRINNLKNEDTATYFCSRGDDYGTGGYVLFYWGQGTTVTVSS
VL: DIVMTQAAASLSVTVGETVTITCRASENIYNNLAWYQQQQGKSPQLLVYAATNLADGVPSRFSGSGSGTHYSLKINSLQSEDFGFYYCQHFWGTPPTFGGGTKLEIK
modifications: 1CP-066 heavy chain variable region; 1CP-066 light chain variable region
B6: 1CP-068: anti-CDCP1 murine monoclonal antibody (hybridoma); VH SEQ ID NO: 270, VL SEQ ID NO: 320 (antibody, V domains shown)
VH: EVQLKESGAELVRPGALVKLSCKASGFNIKDYYMYWVKQRPEQGLEWIGWIDPENGNTIYDPKLQGKARITADTSSNTAYLQLSSLTSEDTAVYYCAGRLYAMEYWGQGTTVTVSS
VL: DVVMTQTPALMSASPGEKVTMTCSASSSVSYMYWYQQKPRSSPKPWIYLTSNLASGVPARFSGSGSGTSYSLTISSMEAEDAATYYCQQWSSDPFTFGGGTKLEIK
modifications: 1CP-068 heavy chain variable region; 1CP-068 light chain variable region
B7: 1CP-067: anti-CDCP1 murine monoclonal antibody (hybridoma); VH SEQ ID NO: 265, VL SEQ ID NO: 315 (antibody, V domains shown)
VH: EVQLKESGGGLVKPGGSLKLSCTASGFTFSVYGMSWVRQTPEKRLEWVATLSGGSNYTYYSDSVKGRFTISRDTGKNNLYLQMSSLSSDDTALYYCATEDGLIGTWGDYWGQGTTVTVSS
VL: DIVMTQAAFSNPVTLGTSASISCRSTKSLLHSNGITYLYWFLQKPGQSPQLLIYQMSNLASGVPDRFSSSGSGTDFTLRISRVEAEDVGVYYCAQNLELPFTFGGGTKLEIK
modifications: 1CP-067 heavy chain variable region; 1CP-067 light chain variable region
B8: 1CP-069: anti-CDCP1 murine monoclonal antibody (hybridoma); VH SEQ ID NO: 266, VL SEQ ID NO: 316 (antibody, V domains shown)
VH: B7 VH with K5Q, E6Q, S55D, S61T, G75A, S87R, D89E, Y95F
VL: B7 VL with F41Y
modifications: 1CP-069 heavy chain variable region; 1CP-069 light chain variable region

Legend:
PC3 cells = assay: Endocytosis capacity of murine monoclonal antibody (flow cytometry internalization); type: cell-based, human; conditions: antibody 1.5 μg/mL; for Internalization PC3 (%) 2 h: PC3, 2 h at 37° C.
Description: (§1) The endocytosis capacity of the antibody was detected for 0.5 to 2 hours. MDA-MB-231 and PC3 cells were subjected to digestion with 5 mM EDTA, and plated at 4×10^4 cells/well after cell counting. After adding an Fc blocker (Human TruStain FcX™, Biolegend, 422302) and blocking at room temperature for 10 mins, a test antibody (1.5 μg/mL) was added, and the mixture was incubated at 4° C. for 30 mins, centrifuged, and washed twice with PBS+2% FBS, then the cells were divided into four equal portions (labeled as 0 h, 0.5 h, 1 h, 2 h), cells labeled as 0.5 h, 1 h, 2 h time points were added to a cell culture medium at 200 µL/well, and cultured at 37° C. for 0.5 h, 1 h, 2 h, respectively. Cells at 0 h point were centrifuged to remove supernatant, a secondary antibody (PE anti-human IgG Fc Antibody, Biolegend, 410708) was added, and the mixture was incubated at 4° C. for 30 mins, centrifuged, and washed twice with PBS+2% FBS, and detection was performed using a flow cytometer. After incubation of cells labeled as 0.5 h, 1 h, and 2 h points at 37° C. was completed, a secondary antibody was added (in the same steps as those at 0 h point), Geo-MFI of the signal under the same voltage was collected as detection signal at 0 h, and antibody internalization rate was calculated according to the following equation: Internalization (%)=(Geo-MFI (0 h)-Geo-MFI (0.5, 1, 2 h))/Geo-MFI (0 h)×100%.

MDA-MB-231 cells [1] = assay: as above; type: cell-based, human; conditions: antibody 1.5 μg/mL; for Internalization MDA-MB-231 (%) 2 h: MDA-MB-231, 2 h at 37° C.
Description: as §1

MDA-MB-231 cells [2] = assay: Endocytosis capacity of humanized antibodies; type: cell-based, human; conditions: antibody 1.5 μg/mL
Description: The endocytosis capacity of the anti-CDCP1 humanized antibody was detected with reference to example 5. MDA-MB-231 cells were subjected to digestion with 5 mM EDTA, and plated at 3×10^4 cells/well after cell counting. After adding an Fc blocker and blocking at room temperature for 10 mins, a test antibody (1.5 μg/mL) was added, and the mixture was incubated at 4° C. for 30 mins, centrifuged, and washed twice with PBS+2% FBS, then the cells were divided into three equal portions (labeled as 0 h, 1 h, 2 h), cells labeled as 1 h and 2 h time points were added to 200 μL of cell culture medium, and cultured at 37° C. for 1 h and 2 h, respectively. Cells at 0 h point were centrifuged, a secondary antibody (PE anti-human IgG Fc Antibody, Biolegend, 410708) was added, and the mixture was incubated at 4° C. for 30 mins, centrifuged, and washed twice with PBS+2% FBS, and detection was performed using a flow cytometer. After incubation of cells labeled as 1 h and 2 h points at 37° C. was completed, a secondary antibody was added (in the same steps as those at 0 h point), Geo-MFI of the signal under the same voltage was collected as detection signal at 0 h, and antibody internalization rate was calculated according to the following equation: Internalization (%)=(Geo-MFI (0 h)-Geo-MFI (1, 2 h))/Geo-MFI (0 h)×100%.

HuCDCP1-C = target: T1, HuCDCP1-C; assay: Caterra affinity of humanized anti-CDCP1 antibodies; type: binding; conditions: HuCDCP1-C 2 μg/ml immobilized
Description: The humanized anti-CDCP1 antibodies obtained from Example 11 were subjected to gene cloning, constructed into pTT5 expression vector for a small amount of expression in CHO cells (Expi-CHOS: Gibco A29127), and purified with an Fc affinity column (AT Protein A Diamond Plus. No. AA402312). Antibody purity was analyzed by HPLC and determined by Nanodrop. High-throughput affinity assay was carried out for a small amount of antibodies by Caterra.

Row | Molecule | Internalization PC3 (%) 2 h (PC3 cells) [%] | Internalization MDA-MB-231 (%) 2 h (MDA-MB-231 cells [1]) [%] | further results
1 | B1 | 7.99 | 27.65 | Internalization PC3 (%) 0.5 h (PC3 cells; PC3, 0.5 h at 37° C.): 0.00%; Internalization PC3 (%) 1 h (PC3 cells; PC3, 1 h at 37° C.): 0.00%; Internalization MDA-MB-231 (%) 0.5 h (MDA-MB-231 cells [1]; MDA-MB-231, 0.5 h at 37° C.): 10.62%; Internalization MDA-MB-231 (%) 1 h (MDA-MB-231 cells [1]; MDA-MB-231, 1 h at 37° C.): 7.08%
2 | B2 | – | – | 1 h endocytosis (%) (MDA-MB-231 cells [2]; MDA-MB-231, 1 h at 37° C.): 45.68%; 2 h endocytosis (%) (MDA-MB-231 cells [2]; MDA-MB-231, 2 h at 37° C.): 68.37%; ka (HuCDCP1-C): 152000 M⁻¹ s⁻¹; kd (HuCDCP1-C): 3.93e-05 s⁻¹
3 | B3 | 93.05 | 93.43 | –
4 | B4 | 68.71 | 52.89 | –
5 | B5 | 33.21 | 55.57 | –
6 | B6 | 66.24 | 49.47 | –
7 | B7 | 72.66 | 69.09 | –
8 | B8 | 73.92 | 73.58 | –
